According to US6734342B2, “Theobromine synthase polypeptide of coffee plant and the gene encoding said polypeptide” (Nara Institute of Science and Technology, priority 2000, dated 2004):

Tests used:
[1] = Measurement of enzymatic (methyl transferase) activity of GST fusion proteins by thin layer chromatography; assay type: biochemical; conditions: for activity as theobromine synthase: polypeptides with higher than 80% homology to SEQ.ID. NO: 1; for activity as a methyl transferase: substrates xanthine, 7-methylxanthine, theobromine, paraxanthine, theophylline, 200 μM each
Experimental: The open reading frame regions of MTL1 (Clone #1), MTL2 (Clone #6), MTL3 (Clone #35) and MXMT1 (Clone #45) were amplified by PCR (polymerase chain reaction). Then, they were optionally cloned into pGEX 4T-2 vector (Pharmacia) and E. coli (JM109) cells were transformed with the resulting plasmids. The obtained E. coli cells were cultured in LB liquid medium containing ampicillin. When OD600 of the culture reached to 0.5, IPTG (isopropyl thio-β-D-galactoside) was added to it and the final concentration of IPTG was made to 1 mM, then the mixture was further cultured at 16° C. for 6 hours. E. coli was desrupted by a sonicator and the protein of the purpose was purified by glutathione Sepharose 4B as a GST (glutathione S-transferase) fusion protein. Concentration of the protein was measured by the Bradford method. Each of the GST fusion protein (500 ng) was separated by SDS-PAGE (sodium dodecyl sulfate polyacrylamide gel electro-phoresis), then it was stained by CBB (coumasie Brilliant Blue) to confirm purification.
Measurement of enzymatic activity was performed using thin layer chromatography (TLC), based on the method of Kato et al. (Plant Physiol., 1996, 98, 629-636). In concrete, the reaction mixture of 100 μl, containing 100 mM Tris-HCl (pH 7.5), 200 μM substrate (xanthine, 7-methylxanthine, theobromine, paraxanthine, theophylline), 4 μM ^14C-labeled S-adenosylmethionine, 200 μM MgCl2, 200 ng GST fusion protein, was incubated at 27° C. for 2 hours. After the reaction, the resulting mixture was extracted with 1 ml of chloroform, the chloroform layer was recovered, then chloroform was evaporated by speed back concentrator. The residue was dissolved in 5 μl of 50% methanol solution, then the solution was developed by TLC (solvent for development was water:acetic acid:n-butanol=2:1:4, v/v/v). After the development, signal of radio activity was detected by image analyzer (Fuji BAS 2000). The result of enzymatic activity, which was measured on the fusion proteins derived from MTL2, MTL3 and MXMT1 using xanthine (X), 7-methylxanthine (7-Mx), theobromine (Tb), paraxanthine (Px) and theophylline (Tp) as the substrate, was shown in FIG. 5.

[2] = Enzymatic activity measurement and identification of the reaction product by HPLC; assay type: biochemical; conditions: 200 μM 7-methylxanthine, 50 μM S-adenosylmethionine, 200 ng GST fusion protein, 27° C., 2 hours; UV 254 nm (FIG. 6)
Experimental: Using high performance liquid chromatography (HPLC), enzymatic activity of the MXMT1 fusion protein was measured and reaction product obtained from the enzymatic reaction was identified. The reaction mixture of 100 μl, containing 100 mM Tris-HCl (pH 7.5), 200 μM of substrate (7-methylxanthine, paraxanthine, theobromine), 50 μM of S-adenosylmethionine, 200 μM of MgCl2, 200 ng of GST fusion protein, was incubated at 27° C. for 2 hours. After incubation, the mixture was extracted with 1 ml of chloroform, the chloroform layer was recovered, then chloroform was evaporated by a speed back concentrator. The residue was dissolved in 50 μl of 12% acetonitrile. Then the solution was fractionated by HPLC (Shodex Rspak DS-613 column) provided with UV detection system. As the solution for development, 12% acetonitrile was used and the signal was detected for absorbance of 254 nm.
The MXMT1 fusion protein was reacted with S-adenosylmethionine and 7-methylxanthine, which is the substrate and the reaction product was analyzed by HPLC. […] Furthermore, S-adenosylmethionine and 7-methylxanthine was reacted with MXMT1 fusion protein and then theobromine was added to the reaction mixture. The peak position of the reaction product detected in FIG. 6A coincided with the position of theobromine, which was analyzed as the standard compound. […]

| Molecule | activity to synthesize theobromine, using 7-methylxanthine as the substrate ([1]; 200 μM 7-methylxanthine, 4 μM 14C-S-adenosylmethionine, 200 ng GST fusion protein, 27° C., 2 hours, TLC (FIG. 5)) | relative activity to synthesize caffeine, using paraxanthine as the substrate ([1]; 200 μM paraxanthine, relative to the activity with 7-methylxanthine, TLC (FIG. 5)) | reaction product identified by HPLC [2] | activity as theobromine synthase [1] | activity as a methyl transferase ([1]; TLC (FIG. 5)) |
| --- | --- | --- | --- | --- | --- |
| MXMT1: theobromine synthase polypeptide of Coffea arabica, amino acids 1 to 378 of SEQ ID NO: 1, expressed in E. coli as GST fusion (protein, listed as Caffea arabica) MELQEVLHMNEGEGDTSYAKNASYNLALAKVKPFLEQCIRELLRANLPNINKCIKVADLGCASGPNTLLTVRDIVQSIDKVGQEEKNELERPTIQIFLNDLFQNDFNSVFKLLPSFYRKLEKENGRKIGSCLISAMPGSFYGRLFPEESMHFLHSCYSVHWLSQVPSGLVIELGIGANKGSIYSSKGCRPPVQKAYLDQFTKDFTTFLRIHSKELFSRGRMLLTCICKVDEFDEPNPLDLLDMAINDLIVEGLLEEEKLDSFNIPFFTPSAEEVKCIVEEEGSCEILYLETFKAHYDAAFSIDDDYPVRSHEQIKAEYVASLIRSVYEPILASHFGEAIMPDLFHRLAKHAAKVLHMGKGCYNNLIISLAKKPEKSDV | potent activity to synthesize theobromine | 15% | theobromine was formed |  |  |
| MTL3: Coffea arabica polypeptide homologous to MXMT1, encoded by clone #35 cDNA (SEQ ID NO: 8) (protein, listed as Caffea arabica) MELQEVLRMNGGEGDTSYAKNSAYNQLVLAKVKPVLEQCVRELLRANLPNINKCIKVADLGCASGPNTLLTVRDIVQSIDKVGQEKKNELERPTIQIFLNDLFPNDFNSVFKLLPSFYRKLEKENGRKIGSCLIGAMPGSFYSRLFPEESMHFLHSCYCLQWLSQVPSGLVTELGISTNKGSIYSSKASRLPVQKAYLDQFTKDFTTFLRIHSEELFSHGRMLLTCICKGVELDARNAIDLLEMAINDLVVEGHLEEEKLDSFNLPVYIPSAEEVKCIVEEEGSFEILYLETFKVLYDAGFSIDDEHIKAEYVASSVRAVYEPILASHFGEAIIPDIFHRFAKHAAKVLPLGKGFYNNLIISLAKKPEKSDV |  |  |  | did not exhibit activity as theobromine synthase | did not exhibit activity as a methyl transferase |
| MTL2: Coffea arabica polypeptide homologous to MXMT1, encoded by clone #6 cDNA (SEQ ID NO: 6) (protein, listed as Caffea arabica) MELQEVLHMNGGEGDASYAKNSSFNQLVLAKVKPVLEQCVGELLRANLPNINKCIKVADLGCASGPNTLLTVRDIVQSIDDVRQEMKNELERPTIQVFLTDLFQNDFNSVFMLLPSFYRKLEKENGRKIGSCLIAAMPGSFHGRLFPEESMHFLHSSYSLQFLSQVPSGLVTELGITANKRSIYSSKASPPPVQKAYLDQFTKDFTTFLRIRSEELLSRGRMLLTCICKGDEFDGPNTMDLLEMAINDLVVEGHLEEEKLDSFNVPIYAASVEELKCIVEEEGSFEILYLETFKLRYDAGFSIDDDCQVRSHSPEYSDEHARAAHVASLLRSVYEPILANHFGEAIIPDIFHRFATNAAKVIRLGKGFYNNLIISLAKKPEKSDI |  |  |  | did not exhibit activity as theobromine synthase | did not exhibit activity as a methyl transferase |
| SEQ.ID. NO: 3: Coffea arabica polypeptide homologous to MXMT1, encoded by clone #1 cDNA (SEQ ID NO: 4) (protein, listed as Caffea arabica) MELQEVLHMNGGEGEASYAKNSSFNQLVLAKVKPVLEQCVRELLRANLPNINKCIKVADLGCASGPNTLLTVWDTVQSIDKVKQEMKNELERPTIQVFLTDLFQNDFNSVFMLLPSFYRKLEKENGRKIGSCLIAAMPGSFHGRLFPEESMHFLHSSYSLQFLSQVPSGLVTELGITANKRSIYSSKASPPPVQKAYLDQFTKDFTTFLRMRSEELLSRGRMLLTCICKGDECDGPNTMDLLEMAINDLVAEGRLGEEKLDSFNVPIYTASVEEVKCMVEEEGSFEILYLQTFKLRYDAGFSIDDDCQVRSHSPVYSDEHARAAHVASLIRSVYEPILASHFGEAIIPDIFHRFATNAAKVIRLGKGFYNNLIISLAKKPEKSDI |  |  |  | did not exhibit activity as theobromine synthase |  |
